Data reported in the supplement of paper PMC7877785.
± gives the uncertainty stated by the source.

Experiment: self-splicing fitness, log relative to wild type (ln ratio); higher = more splicing; Tetrahymena group I intron in knt gene, E. coli kanamycin selection, DiMSum; sequences stand for … in CUCUCU…GGAGGGAAAAGUUAUCAGGCAUGCACCUGGUAGCUAGUCUUUAAACCAAUAGAUUGCAUCGGUUUAAAAGGCAAGACCGUCAAAUUGCGGGAAAGGGGUCAACAGCCGUUCAGUACCAAGUCUCAGGGGAAACUUUGAGAUGGCCUUGCAAAGGGUAUGGUAAUAAGCUGACGGACAUGGUCCUAACCACGCAGCCAAGUCCUAAGUCAACAGAUCUUCUGUUGAUAUGGAUGCAGUUCACAGACUAAAUGUCGGUCGGGGAAGAUGUAUUCUUCUCAUAAGAUAUAGUCGGACCUCUCCUUAAUGGGAGCUAGCGGAUGAAGUGAUGCAACACUGGAGCCGCUGGGAACUAAUUUGUAUGCGAAAGUAUAUUGAUUAGUUUUGGAGUACUCGUGGUCG
Summary of the method: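 Fitness was computed with DiMSum as the error-weighted combination of replicate fold changes, kanamycin versus none, each normalised to wild type. The library randomised all eight intron nucleotides of the P1ex region, with the intron placed in the knt kanamycin-resistance gene on pET-22b(+) in E. coli BL21(DE3). Six replicate transformations were grown overnight at 37°C or 30°C on LB agar with or without 25 μg/mL kanamycin, plus 100 μg/mL carbenicillin, 50 μM IPTG and 0.2% rhamnose. Pooled colonies were amplicon-sequenced on an Illumina HiSeq 2500.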

Sequence | self-splicing fitness (ln) (30 °C) | self-splicing fitness (ln) (37 °C)
GAAUAGCAAUAUUACGGCUG | -0.443 ± 0.083 | -0.941 ± 0.1
GAAUAGCAAUAUUACGGGUA | -2.2 ± 0.19 | -1.2 ± 0.14
GAAUAGCAAUAUUACGGUAA | -2.25 ± 0.16 | -0.943 ± 0.13
GAAUAGCAAUAUUACGGUAC | -1.1 ± 0.13 | -0.802 ± 0.2
GAAUAGCAAUAUUACGGUAG | -2.88 ± 0.12 | -2.22 ± 0.16
GAAUAGCAAUAUUACGGUCG | -0.153 ± 0.098 | -0.479 ± 0.12
GAAUAGCAAUAUUACGUAAU | -2.99 ± 0.13 | -0.789 ± 0.11
GAAUAGCAAUAUUACGUACC | -0.757 ± 0.19 | -0.37 ± 0.3
GAAUAGCAAUAUUACGUCCA | -1.28 ± 0.1 | -0.00949 ± 0.13
GAAUAGCAAUAUUACGUCCU | -1.05 ± 0.11 | 0.425 ± 0.15
GAAUAGCAAUAUUACGUCGC | -0.78 ± 0.12 | -0.38 ± 0.17
GAAUAGCAAUAUUACGUCGG | -3.21 ± 0.12 | -3.19 ± 0.2
GAAUAGCAAUAUUACGUUCC | -3.17 ± 0.32 | –
GACAAGCAAUAUUACGAAGA | -2.94 ± 0.17 | -1.19 ± 0.13
GACAAGCAAUAUUACGACAU | -0.624 ± 0.011 | -0.191 ± 0.032
GACAAGCAAUAUUACGAGUC | -1.85 ± 0.15 | -2.72 ± 0.28
GACAAGCAAUAUUACGAUUU | -0.222 ± 0.063 | 0.406 ± 0.081
GACAAGCAAUAUUACGCAAC | -2.72 ± 0.14 | -2.15 ± 0.24
GACAAGCAAUAUUACGCACU | 0.582 ± 0.11 | -0.112 ± 0.12
GACAAGCAAUAUUACGCGCU | -1.29 ± 0.058 | -0.594 ± 0.073
GACAAGCAAUAUUACGGAAG | -2.75 ± 0.21 | -3.29 ± 0.37
GACAAGCAAUAUUACGGCCG | -0.239 ± 0.14 | -0.53 ± 0.22
GACAAGCAAUAUUACGGGAA | -2.12 ± 0.097 | -1.36 ± 0.12
GACAAGCAAUAUUACGGUAU | -1.29 ± 0.073 | -1.17 ± 0.087

Sequence | self-splicing fitness (ln) (30 °C) | self-splicing fitness (ln) (37 °C)
GACAAGCAAUAUUACGGUCA | -0.777 ± 0.13 | -0.735 ± 0.12
GACAAGCAAUAUUACGUACC | -1.71 ± 0.13 | -1.11 ± 0.12
GACAAGCAAUAUUACGUAGG | -3.07 ± 0.11 | -2.22 ± 0.13
GACAAGCAAUAUUACGUCAU | -3.05 ± 0.15 | -2.62 ± 0.16
GACAAGCAAUAUUACGUGAU | -1.77 ± 0.071 | -1.17 ± 0.09
GACAAGCAAUAUUACGUUUU | -2.69 ± 0.076 | -1.97 ± 0.1
GACCAGCAAUAUUACGAACC | -0.191 ± 0.09 | 0.0652 ± 0.092
GACCAGCAAUAUUACGAACG | -0.447 ± 0.075 | -0.466 ± 0.11
GACCAGCAAUAUUACGAACU | 0.271 ± 0.062 | -0.0101 ± 0.082
GACCAGCAAUAUUACGAAGU | -1.45 ± 0.09 | -0.269 ± 0.1
GACCAGCAAUAUUACGAGCC | -0.222 ± 0.093 | 0.0644 ± 0.14
GACCAGCAAUAUUACGAUGC | -0.38 ± 0.059 | -0.185 ± 0.072
GACCAGCAAUAUUACGAUUU | 0.0538 ± 0.046 | 0.446 ± 0.065
GACCAGCAAUAUUACGCGAA | -0.483 ± 0.059 | -0.138 ± 0.083
GACCAGCAAUAUUACGCGCG | -0.501 ± 0.061 | 0.0713 ± 0.078
GACCAGCAAUAUUACGCGCU | -1.68 ± 0.12 | -0.412 ± 0.12
GACCAGCAAUAUUACGCGGC | -3 ± 0.25 | -2.3 ± 0.29
GACCAGCAAUAUUACGCGGU | -4.81 ± 0.39 | -3.27 ± 0.27
GACCAGCAAUAUUACGCGUU | -3.49 ± 0.12 | -2.54 ± 0.14
GACCAGCAAUAUUACGCUAC | – | -2.47 ± 0.3
GACCAGCAAUAUUACGGAAA | -0.538 ± 0.086 | 0.437 ± 0.096
GACCAGCAAUAUUACGGACA | -0.345 ± 0.078 | -0.496 ± 0.081
GACCAGCAAUAUUACGGAUC | -1.45 ± 0.095 | -0.489 ± 0.12
GACCAGCAAUAUUACGGAUU | -0.723 ± 0.049 | -0.029 ± 0.062

Sequence | self-splicing fitness (ln) (30 °C) | self-splicing fitness (ln) (37 °C)
GACCAGCAAUAUUACGGGGA | -0.82 ± 0.074 | -0.839 ± 0.087
GACCAGCAAUAUUACGUAAU | -0.385 ± 0.058 | -0.075 ± 0.07
GACCAGCAAUAUUACGUACC | -0.415 ± 0.08 | -0.106 ± 0.098
GACCAGCAAUAUUACGUCAC | -4.24 ± 0.27 | -2.54 ± 0.2
GACCAGCAAUAUUACGUUCU | -0.569 ± 0.078 | -0.975 ± 0.12
GACGAGCAAUAUUACGAGCA | -3.31 ± 0.35 | -2.65 ± 0.3
GACGAGCAAUAUUACGAUGA | -4.01 ± 0.39 | -2.14 ± 0.2
GACGAGCAAUAUUACGCAUG | -3.07 ± 0.25 | -1.61 ± 0.19
GACGAGCAAUAUUACGCCAU | -2.23 ± 0.49 | –
GACGAGCAAUAUUACGCGUC | -2.57 ± 0.5 | –
GACGAGCAAUAUUACGCUAC | -2.62 ± 0.18 | -2.54 ± 0.26
GACGAGCAAUAUUACGCUCU | -3.92 ± 0.27 | -1.64 ± 0.32
GACGAGCAAUAUUACGCUUG | -4 ± 0.26 | -1.27 ± 0.16
GACGAGCAAUAUUACGGACG | -1.64 ± 0.21 | -2.33 ± 0.31
GACGAGCAAUAUUACGGAGG | -3.68 ± 0.26 | -2.97 ± 0.35
GACGAGCAAUAUUACGGAGU | -3.71 ± 0.35 | -2.49 ± 0.24
GACGAGCAAUAUUACGGCAC | -2.53 ± 0.18 | -1.62 ± 0.16
GACGAGCAAUAUUACGGGAC | -3.94 ± 0.31 | -2.23 ± 0.46
GACGAGCAAUAUUACGGGCG | -3.8 ± 0.27 | -1.08 ± 0.17
GACGAGCAAUAUUACGGGUU | -3.77 ± 0.18 | -2.75 ± 0.21
GACGAGCAAUAUUACGUACG | -2.63 ± 0.29 | -2.17 ± 0.33
GACGAGCAAUAUUACGUGGC | -0.192 ± 0.41 | -1.57 ± 0.22
GACGAGCAAUAUUACGUUAC | – | -0.804 ± 0.25
GACGAGCAAUAUUACGUUGA | -2.36 ± 0.22 | -1.5 ± 0.17

Sequence | self-splicing fitness (ln) (30 °C) | self-splicing fitness (ln) (37 °C)
GACGAGCAAUAUUACGUUGC | -4.31 ± 0.3 | -2.48 ± 0.24
GACGAGCAAUAUUACGUUUG | -3.1 ± 0.22 | -1.94 ± 0.26
GACUAGCAAUAUUACGAACC | -1.64 ± 0.17 | -0.0491 ± 0.19
GACUAGCAAUAUUACGAGUA | -0.991 ± 0.067 | -0.253 ± 0.069
GACUAGCAAUAUUACGAUCC | -2.21 ± 0.18 | -1.57 ± 0.2
GACUAGCAAUAUUACGAUGU | -2.24 ± 0.15 | -1.53 ± 0.17
GACUAGCAAUAUUACGAUUA | -0.841 ± 0.069 | -0.413 ± 0.082
GACUAGCAAUAUUACGCCCC | -0.792 ± 0.23 | -0.904 ± 0.27
GACUAGCAAUAUUACGCGAC | -1.59 ± 0.28 | -0.817 ± 0.27
GACUAGCAAUAUUACGCGCG | 0.097 ± 0.11 | -0.349 ± 0.11
GACUAGCAAUAUUACGCGCU | -0.916 ± 0.095 | -0.878 ± 0.12
GACUAGCAAUAUUACGGAGA | -3.49 ± 0.23 | -2.04 ± 0.19
GACUAGCAAUAUUACGGAGU | -4.2 ± 0.25 | -2.87 ± 0.21
GACUAGCAAUAUUACGGUGU | -1.84 ± 0.098 | -0.76 ± 0.1
GACUAGCAAUAUUACGUAAU | -1.31 ± 0.077 | -0.482 ± 0.092
GACUAGCAAUAUUACGUAGG | -1.95 ± 0.091 | -1.03 ± 0.11
GACUAGCAAUAUUACGUAUU | -1.11 ± 0.072 | -0.646 ± 0.079
GACUAGCAAUAUUACGUCGG | -3.55 ± 0.21 | -3.32 ± 0.24
GACUAGCAAUAUUACGUCUC | -1.46 ± 0.16 | -0.484 ± 0.16
GAGAAGCAAUAUUACGAAAU | -3.17 ± 0.23 | -1.63 ± 0.19
GAGAAGCAAUAUUACGAACG | -0.734 ± 0.12 | -0.343 ± 0.17
GAGAAGCAAUAUUACGACAA | -0.787 ± 0.1 | -0.365 ± 0.12
GAGAAGCAAUAUUACGAGUC | -2.11 ± 0.11 | -1.78 ± 0.2
GAGAAGCAAUAUUACGAUAC | -1.73 ± 0.13 | -0.221 ± 0.18
